Test: label from the status in PepcDB records

Sequence | protein production
MSLRDYTRKRRFDQTPEPAEDAAATAHRQPIFVVQLHHASSRHYDFRLEADGVLKSWAVPKGPSLRAGEKRLAVQVEDHPLAYAGFEGDIPQGQYGAGHVQVFDHGTWHCDGDALAALDAGKLDFDLQGDKLRGGFALVRTRLRGRQPQWLLIKRDDAHAADLDADALVADSDATAQAIETPSAAAAPARRAKASRRRRTPAEALVTEKSASASRPRASAATQAHWRTRALALPGARDAACPTGLRAQLTLLRAEAPDGAQWPHEIKWDGYRLLTDLVDGRAQLRSRNDQAWTDSFPEVATAVQALPVRDARLDGELVVLDAQGRSDFSALQRAIDGTARQPLRYLVFDLLGVAGVDLRATPLLERKQLLRALLGETPGTLAYSAHVIGRGPEVFAASADKGWEGIVSKRADAPYRGGRSADWVKTKHEDSDEFVVVGYTDPKGARSGFGALLLAQLDGTQLRYVGRVGTGFDSALLGEITAQLQALHSPQPTLELPAHIPSRPRDVHWVRPVLIAEVAFRGWAKQGLLRQAAFKRLREDKPMSDLGGDRATPGKSRGARTRTAAAAAGKASRAAATRTAAVSAGGSAAKPGKAGKSSTAADVSTPSRVAKQRVTPAASSAAKPGKPGKSSAAATGTASPRAAKRGAVSTASASSTPKSGKRSVSSGSAASGKPAAPSKAASSKTARTPATSSARKTSTATAASSIRKARASASNAPDGVAITHPERVVFPAAGISKGDVAAYYRAVAPLVLPEIARRPLSLLRCPDGAAGACFFQKHEGRHLGAHIKAIPLKQKSGTEDYLYIEDVAGLLELVQMNTLELHPWGARVDDPEHPDRLVFDLDPGEGVAWTQVVAAAREIRSKLRAAGLESAVRLSGGKGLHVVVPIVPQASWDQARDFCEAFAQALATQAPERYVATMSKAKRHGVIFVDWLRNGRGNTSVCSWSLRAREHATVAVPLRWEELGKLSGPDAFPLDKAVQRAKRQRNDPWADVLALKQVLPG | failed
MSLRIGVIGLGRIGTIHAENLKMIDDAILYAISDVREDRLREMKEKLGVEKAYKDPHELIEDPNVDAVLVCSSTNTHSELVIACAKAKKHVFCEKPLSLNLADVDRMIEETKKADVILFTGFNRRFDRNFKKLKEAVENGTIGKPHVLRITSRDPAPPPLDYIRVSGGIFLDMTIHDFDMARYIMGEEVEEVFADGSVLVDEEIGKAGDVDTAVVVLRFKSGALGVIDNSRRAVYGYDQRIEVFGSKGRIFADNVRETTVVLTDEQGDRGSRYLYFFLERYRDSYLEELKTFIKNVKSGEPPAVSGEDGKMALLLGYAAKKSLEEKRSVKLEEVIGEGHHHHHH | not failed
MSLRIRVPATTANLGPGFDSCGLALTLYLTLDIGAEADSWYIEHNIGGGIPHDETNVIIETALNLAPNLTPHHLVMTCDIPPARGLGSSSAAVVAGIELANTLAELNLSKEEKVRIAAEIEGHPDNVAPAVLGNWVVGAKLDGEDFYVRHLFPDCALIAFIPKAELLTSESRGVLPDTLPFKEAVQASSIANVMIAAILRNDMALAGEMMERDLWHEKYRSQLVPHLTQIRDVAKSQGAYAACLSGAGPTVLVFAPRNLANTLQTSLQTLEIDADVLLLDVEGSGAEVFREGHHHHHH | not failed
MSLRITRIRLYKTDLPYVDGSYGWGAGNAITVARASVVVIDTDAGLQGCGEFTPCGENYMIAHSEGVDAFARLAAPQLLGQDPRQVARMERLMDHLVQGHGYAKAPFDAAFWDILGQATGQPVWMLLGGKLCDGAPMYRVAPQRSEAETRAELARHRAAGYRQFQIKVGADWQSDIDRIRACLPLLEPGEKAMADANQGWRVDNAIRLARATRDLDYILEQPCRSYEECQQVRRVADQPMKLDECVTGLHMAQRIVADRGAEICCLKISNLGGLSKARRTRDFLIDNRMPVVAEDSWGGEIASAAVAHFAASTPEEFLINSTDLMNYNTRSTGLGGPTVHQGRLYASDTPGLGVTPDFNSLGAPVADWALPEGHHHHHH | not failed
MSLRIVVTVKYVPDATGDRHFAEDLTVDRDDVDGLLSELDEYAVEQALQIADDADDADDAEITVLTVGPEDAKDALRKALSMGADKAIHVEDDDLHGTDVIGTSLVLAKAIEKAGYDLVISGMASTDGTAGVVPALLAERLGVPQVTLLSEVSVEDGVVKGRRDGDSASEQLEASLPAVVSVTDQSGEARYPSFKGIMAAKKKPVESWDLSDLDLEAEEVGLEGAWTKVDSATERPARTAGTIVKDEGEGGKQLAEFLAGQKFI | failed
MSLRLKKLQKIVPYSPLKSLKIWHLFCVVRLCSIVVTSMTAGKTPTHFTTQPLNRVLGETSGAFADLGTFLPLVLGLIALNQFSPQGIFLGFGVFAILSALFYRRPMPVQPMKVIAALVIAQGLTPGMLQASAMLMGIILLILAFSGAITWLAKQLSQAVSVGIQLAIGLQLMWMGAKMMSDFWLLGLGAFALLFASKFLPLRYLAMPLVIAAGMIWQANSQTDMATSLSIPALSASLHLAWPTLNEWSSAAILLVLPQLALTLTNAVIATSVMAQEKFPEDAAKLTPKNLAISSGLANLLLAPFGAAAMCHGAGGLAVQYHFGARTHLAPLIFGGTCLVIALFWDSQMAWLLGLIPVAILGSLLSIGGLQLAWSKRLIDGKPFCIFVILSTAVTCLAINAAAGLAVGIILEQGRRTWAMLAMR | failed
MSLRPRVLLVEDSTSLAILYKQYVKDEPYDIFHVETGRDAIQFIERSKPQLIILDLKLPDMSGEDVLDWINQNDIPTSVIIATAHGSVDLAVNLIQKGAEDFLEKPINADRLKTSVALHLKRAKLEDLVEGHHHHHH | not failed
MSLRSEQEMMDIFLDFALNDERIRLVTLEGSRTNRNIPPDNFQDYDISYFVTDVESFKENDQWLEIFGKRIMMQKPEDMELFPPELGNWFSYIILFEDGNKLDLTLIPIREAEDYFANNDGLVKVLLDKDSFINYKVTPNDRQYWIKRPTAREFDDCCNEFWMVSTYVVKGLARNEILFAIDHLNEIVRPNLLRMMAWHIASQKGYSFSMGKNYKFMKRYLSNKEWEELMSTYSVNGYQEMWKSLFTCYALFRKYSKAVSEGLAYKYPDYDEGITKYTEGIYCSVKEGHHHHHH | not failed
MSLRSHFATQKDQWQTYTKEKKIKIGFDATFVPMGYEEKDGSYIGFDIDLANAVFKLYGIDVEWQAIDWDMKETELKNGTIDLIWNGYSVTDERKQSADFTEPYMVNEQVLVTKKSSGIDSVAGMAGKTLGAQAGSSGYDAFNASPKILKDVVANQKVVQYSTFTQALIDLNSGRIDGLLIDRVYANYYLEKSGVLDQYNVMPAGYEGESFAVGARKVDKTLIKKINQGFETLYKNGEFQKISNKWFGEDVATDQVKGKREGHHHHHH | not failed
MSLRTGKTNVIALVLSVDEELMGFTSQMVFGITEVLSTTQYHLVVTPHIHAKDSMVPIRYILETGSADGVIISKIEPNDPRVRFMTERNMPFVTHGRSDMGIEHAFHDFDNEAYAYEAVERLAQCGRKRIAVIVPPSRFSFHDHARKGFNRGIRDFGLTEFPIDAVTIETPLEKIRDFGQRLMQSSDRPDGIVSISGSSTIALVAGFEAAGVKIGEDVDIVSKQSAEFLNWIKPQIHTVNEDIKLAGRELAKALLARINGEAAETLQSISGPVWSSMAPKEGHHHHHH | not failed
MSLRTLVAGVDTSTQSCKVRVTDAETGELVRFGQAKHPNGTSVDPSYWWSAFQEAAEQAGGLDDVSALAVGGQQHGMVILDNQGNVIRDAMLWNDTSSAPQAAALIEKLGAAPAQDGEPEDPIARGKQRWVKAVGSSPVASYTLTKVAWVAENEPENVKKIAAICLPHDWLSWRIAGYGPVAEGEDAHLEALFTDRSDASGTIYYDAASNEYRRDLIAMVLEAAEGAKAAQSHAEAIVLPTVLGPRDAAPVKADPAIAGKNVEGGCLLAPGGGDNAMASLGLGMAVGDVSISLGTSGVAAAISENPTYDLTGAVSGFADCTGHYLPLACTINGSRILDAGRAALGVDYDELAKLAFASKPGANGITLVPYFDGERTPNRPNATATFSGMTLANTTRENLARAFVEGLLCSQRDCLELIRSLGASITRILLIGGGAKSEAIRTLAPSILGMDVTRPATDEYVAIGAARQAAWVLSGETEPPAWQLTIDGVETGEPTEAVYEAYAKARGEGHHHHHH | not failed
MSLRVYVTGNITVDETWSIPDIPKKGASIHGVKVSQDIGGKGANQAIILSRCGIETRLIAATGNDSNGAWIRQQIKNEPLMLLPDGHFNQHSDTSIILNSADGDNAIITTTAAADTFSLDEMIPHMADAVAGDILLQQGNFSLDKTRALFQYARSRGMTTVFNPSPVNPDFCHLWPLIDIAVVNESEAELLQPYGVKTLVITQGAAGAWLVQEGQRQFCPAVPAEALDTTGAGDTFLAVMLASALLRGVAPDALALAHASRAAAITVSRRGTLSAFPGSRELAALLTTDGAEGHHHHHH | not failed
MSLRWQWRIYEEPLQEPLTTAQGVWRSRSGIYLRLEDEQGQVGYGEIAPLPGWGSETLNADIALCQQLPGHLTPEIMATIPEALPAAQFGFATAWQSVGRLPYRVRPWPICALLGSGQAALEQWQQSWQRGQTTFKWKVGVMSPEEEQAILKALLAALPPGAKLRLDANGSWDRATANRWFAWLDRHGNGKIEYVEQPLPPDQWQALLSLAQTVTTAIALDESVVSAAEVQRWVDRGWPGFFVIKTALFGDPDSLSLLLRRGLEPQRLVFSSALEGAIARTAIFHLLETWQPCHALGFGVDRWRSAPLLTTLTAYERLWERLDQGHHHHHH | not failed
MSLSASLPLAIERRPAAWTFTLSRPEKRNALSAELVEALIDGVDAAHREQVPLLVFAGAGRNFSAGFDFTDYETQSEGDLLLRMVRIEMLLQRVAGSPSLTLALAHGRNFGAGVDLFAACKWRYCTPEAGFRMPGLKFGLVLGTRRFRDIVGADQALSILGSARAFDADEARRIGFVRDCAAQAQWPALIDAAAEAATALDPATRATLHRVLRDDHDDADLAALARSAAQPGFKARIRDYLAQPAAEGHHHHHH | not failed
MSLSFLKHVQDCNTHDLSNFVRFVIEGRRVGWVRKALAQRLKAHGRVFDVTRDAVLLSASLRTPQSRTRAVADVVDRLADEGVVPAPRGELYRVNQSWGEPTLMLLDRAVVPTFGVRAYGVHLNGYVGAGADLHLWIGRRSPDKSVAPGKLDNMVAGGQPADLSLRQNLIKECAEEADLPEALARQAIPVGAITYCMESPAGIKPDTLFLYDLALPEDFRPHNTDGEMADFMLWPAAKVVEAVRTTEAFKFNVNLTVIDFAIRHGLIDPDNEPDYQEILAGLRGRPRERAASEGHHHHHH | not failed
MSLSLKIALISQNENLLNLFPKLALEKNFIPITKTASLTRASKIAFGLQDEVDAIISRGATSDYIKKSVSIPSISIKVTRFDTMRAVYNAKRFGNELALIAYKHSIVDKHEIEAMLGVKIKEFLFSSEDEITTLISKVKTENIKIVVSGKTVTDEAIKQGLYGETINSGEESLRRAIEEALNLIEVRNEGHHHHHH | not failed
MSLSLYYKKIREQLGHELIFMPSVAAVIKNEQGELLFQYPGGEYWSLPAGAIEPGETPEEAVIREVWEETGLKVQVKKQKGVFGGKEFRYTYANGDKVEYIVVVFECEITSGKLKSIDGESLKLQYFSFSEKPPLALPYPDKIFLEGHHHHHH | not failed

Source: a protein production outcome set (Wang et al. 2014)
